Experiments:
[1] = target: T1, PTDHI (phosphite dehydrogenase with a C-terminal RIDD tag); assay: SEC; each purified tagged protein alone, in the absence of any other tagged protein; Superdex 200 (10/300), 50 mM Tris–HCl with 150 mM NaCl, pH 7.5; settings: both partners purified
T1 chain: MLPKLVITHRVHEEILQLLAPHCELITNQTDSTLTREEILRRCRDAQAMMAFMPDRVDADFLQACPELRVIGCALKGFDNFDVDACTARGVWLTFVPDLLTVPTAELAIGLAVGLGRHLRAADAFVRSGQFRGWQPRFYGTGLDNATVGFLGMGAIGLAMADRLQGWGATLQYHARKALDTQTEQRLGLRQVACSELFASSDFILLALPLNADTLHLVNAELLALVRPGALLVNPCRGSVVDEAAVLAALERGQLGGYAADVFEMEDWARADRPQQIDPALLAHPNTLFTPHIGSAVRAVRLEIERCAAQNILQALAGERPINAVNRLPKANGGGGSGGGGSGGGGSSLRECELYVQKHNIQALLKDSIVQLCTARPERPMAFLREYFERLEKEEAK

[2] = target: the molecule itself; assay: as above

B1: PTDHI (phosphite dehydrogenase with a C-terminal RIDD tag) (enzyme)
chain: MLPKLVITHRVHEEILQLLAPHCELITNQTDSTLTREEILRRCRDAQAMMAFMPDRVDADFLQACPELRVIGCALKGFDNFDVDACTARGVWLTFVPDLLTVPTAELAIGLAVGLGRHLRAADAFVRSGQFRGWQPRFYGTGLDNATVGFLGMGAIGLAMADRLQGWGATLQYHARKALDTQTEQRLGLRQVACSELFASSDFILLALPLNADTLHLVNAELLALVRPGALLVNPCRGSVVDEAAVLAALERGQLGGYAADVFEMEDWARADRPQQIDPALLAHPNTLFTPHIGSAVRAVRLEIERCAAQNILQALAGERPINAVNRLPKANGGGGSGGGGSGGGGSSLRECELYVQKHNIQALLKDSIVQLCTARPERPMAFLREYFERLEKEEAK
modifications: PTDH taken as the thermostable A176R variant of PDB 4E5P (cited in Figure 1); the exact pCRE2 variant and C-terminus are not printed. RIDD taken as the conventional RI-alpha docking domain …
Question: For B1, which “stoichiometry N” value [1] is on record?
Answer: 2

B2: PAMOI (phenylacetone monooxygenase with a C-terminal RIDD tag) (enzyme)
chain: MAGQTTVDSRRQPPEEVDVLVVGAGFSGLYALYRLRELGRSVHVIETAGDVGGVWYWNRYPGARCDIESIEYCYSFSEEVLQEWNWTERYASQPEILRYINFVADKFDLRSGITFHTTVTAAAFDEATNTWTVDTNHGDRIRARYLIMASGQLSVPQLPNFPGLKDFAGNLYHTGNWPHEPVDFSGQRVGVIGTGSSGIQVSPQIAKQAAELFVFQRTPHFAVPARNAPLDPEFLADLKKRYAEFREESRNTPGGTHRYQGPKSALEVSDEELVETLERYWQEGGPDILAAYRDILRDRDANERVAEFIRNKIRNTVRDPEVAERLVPKGYPFGTKRLILEIDYYEMFNRDNVHLVDTLSAPIETITPRGVRTSEREYELDSLVLATGFDALTGALFKIDIRGVGNVALKEKWAAGPRTYLGLSTAGFPNLFFIAGPGSPSALSNMLVSIEQHVEWVTDHIAYMFKNGLTRSEAVLEKEDEWVEHVNEIADETLYPMTASWYTGANVPGKPRVFMLYVGGFHRYRQICDEVAAKGYEGFVLTGGGGSGGGGSGGGGSSLRECELYVQKHNIQALLKDSIVQLCTARPERPMAFLREYFERLEKEEAK
Question: With B2 as the binder, how does the “stoichiometry N” value [2] read?
Answer: 2

Reference: PMC8234031, “Modular Assembly of Phosphite Dehydrogenase and Phenylacetone Monooxygenase for Tuning Cofactor Regeneration” (Biomolecules, 2021)
